Assay results taken from patent US20230057847A1, “GLP2 RECEPTOR AGONISTS AND METHODS OF USE” (The Scripps Research Institute, priority 2019, published 2023).

Key:
Assay in all cases: cell-based or functional assay
GCGR = biological target: GCGR
GLP-1R = biological target: GLP-1R
GIPR = biological target: GIPR

Measured: IC50 [nM] (665/615 ratio, free cAMP)

GLP-2 (ligand)
> 500 nM: all assays above
